Data taken from patent US12539335B2, “Tricyclic polypeptide conjugated drug and use thereof” (CONJUSTAR (ZHUHAI) BIOLOGICS CO., LTD., priority 2021, dated 2026).
Where a name gives a salt, the structure may show the parent alone. Starred links: 1 amine or outer side, 2 acyl side, 3 side chain; linkers in the order of their positions; H or OH if unused. Positions of bridges follow the written chain, without caps; N, C: chain ends. Non-standard residues stand in square brackets, D forms with d. Residues, ends and D or L forms follow the SMILES beside them. Chains are numbered I, II in the order given. *: point of attachment. TATA = O=C(CC[*:1])N1CN(C(=O)CC[*:2])CN(C(=O)CC[*:3])C1; Dolaproine = CO[C@@H]([C@@H]1CCCN1)[C@@H](C)C(=O)O; Dil = CC[C@H](C)[C@H](NC)[C@@H](CC(=O)O)OC; 1Nal = N[C@@H](Cc1cccc2ccccc12)C(=O)O; X2 = O=C(CCCC(=O)[*:2])NCCC(=O)[*:1]; PABC = O=C(OCc1ccc(N[*:1])cc1)[*:2]; X1 = C[C@@H](N*)[C@@H](O)c1ccccc1; Hyp = O=C(O)[C@@H]1C[C@@H](O)CN1; hArg = N=C(N)NCCCC[C@H](N)C(=O)O; Cit = NC(=O)NCCC[C@H](N)C(=O)O; Pen = CC(C)(S)[C@H](N)C(=O)O; NMeV = CN[C@H](C(=O)O)C(C)C; Sar = CNCC(=O)O

Tests used:
[1] = Metabolic stability in kidney S9, humans; type: in vitro ADME; conditions: human
Procedure: (§1) Test Example 8: Metabolic Stability of the Compounds of the Present Invention in Kidney S9 from Mice, Rats, Cynomolgus Macaques, and Humans
(§2) To investigate the metabolic stability of the compounds of the present invention in kidney S9 from mice, rats, Cynomolgus macaques, and humans.
(§3) Materials: Kidney S9 from CD-1 mice, SD rats, Cynomolgus macaques, and humans were purchased from BioIVT or XenoTech LLC and stored in a −80° C. refrigerator.
(§4) Experimental procedure: Eight 96-well plates, designated T0, T5, T15, T30, T45, T60, Blank, and NCF60, were prepared. The first six incubation plates corresponded to reaction time points of 0, 5, 15, 30, 45, and 60 minutes, respectively. No test sample or control compound was added to the Blank plate.
(§5) The T0, T5, T15, T30, T45, and T60 plates were added with a 2 μL working solution of the test sample (10 mM of a solution of the compound to be tested in DMSO, diluted to 100 μM with 100% acetonitrile) and 100 μL of a S9 working solution (kidney S9 protein concentration of 1.0 mg/mL), and the Blank plate was only added with the S9 working solution. The above incubation plates were then placed in a 37° C. water bath for pre-incubation for about 10 minutes.
(§6) At the end of the pre-incubation, 98 μL of an auxiliary enzyme working solution was added to each sample well except the TO plate to start the reaction. […]

[2] = Pharmacokinetic analysis in Cynomolgus macaque plasma; type: in vivo; conditions: cynomolgus monkey, Cynomolgus macaques, single IV 1 mg/kg, plasma
Procedure: Test Example 6: Pharmacokinetic Analysis in Cynomolgus Macaque Plasma
To test the pharmacokinetics of the compounds of the present invention in Cynomolgus macaques.
The pharmacokinetic characteristics of the compound after intravenous injection were tested according to a standard protocol in Cynomolgus macaques. The compound to be tested was formulated into a clear solution using 25 mM L-histidine (pH=7) in 10% sucrose as a vehicle. Cynomolgus macaques were given a single intravenous injection of 1 mg/kg of the compound to be tested. Whole blood was collected at time points of 0.083, 0.25, 0.5, 1, 2, 4, 8, and 24 hours after administration to get plasma. The concentration of the compound to be tested and the concentration of its potential metabolite MMAE were analyzed by the LC-MS/MS method, and the pharmacokinetic parameters were calculated by Phoenix WinNonlin software.

[3] = Stability in plasma, Cynomolgus macaques; type: in vitro ADME; conditions: cynomolgus macaque, 37° C.
Procedure: (§7) Test Example 9: Stability Analysis of the Compounds of the Present Invention in Plasma from Different Species
(§8) To test the stability of the compounds of the present invention in plasma from SD rats, Cynomolgus macaques, and humans.
(§9) The corresponding incubation plates, including T0, T10, T30, T60, T120, and T240 incubation plates, were added with a 2 μL working solution of the compound to be tested (100 μM). Three parallel wells were prepared for each sample. Then, 98 μL of blank plasma from SD rats, Cynomolgus macaques, and humans was added to the corresponding incubation plates to which the working solution had been added. All samples were incubated in a 37° C. water bath. […] At the end of each incubation time point, the corresponding incubation plate was removed, added with stop buffer, precipitated, and centrifuged for 20 minutes. Then, 150 μL of the supernatant was analyzed by the LC-MS/MS method. The concentration of the compound to be tested in the sample was semi-quantitatively determined by the liquid chromatography-tandem mass spectrometry (LC-MS/MS) method.

[4] = Metabolic stability in kidney S9, CD-1 mice; type: in vitro ADME; conditions: mouse; CD-1 mice kidney S9
Procedure: as §1, §2, §3, §4, §5, §6

[5] = Metabolic stability in hepatocytes, humans; type: in vitro ADME; conditions: human, hepatocytes (cryopreserved, suspension), 0.5×10^6 cells/mL
Procedure: Test Example 7: Metabolic Stability of the Compounds of the Present Invention in Hepatocytes from Mice, Rats, Cynomolgus Macaques, and Humans
To investigate the metabolic stability of the compounds of the present invention in hepatocytes from mice, rats, Cynomolgus macaques, and humans.
Incubations were performed in 96-well plates using an external extraction method. Several 96-well sample precipitation plates, designated T0, T15, T30, T60, T90, TO-MC, T90-MC, and blank matrix, were prepared, respectively. The recovery culture medium and incubation culture medium were removed in advance and placed in a 37° C. water bath for preheating. […]
At the end of the incubation at the corresponding time point, the incubation plates were removed, from which 25 μL of a compound mixture with the cells and a control compound mixture with the cells were removed and added to sample plates containing 125 μL of stop buffer, respectively. […] All samples were mixed uniformly and then analyzed by the LC-MS/MS method.
The concentration of the compound to be tested and the concentration of the control in the sample were semi-quantitatively determined by the liquid chromatography-tandem mass spectrometry (LC-MS/MS) method without a standard curve and quality control sample. […]

[6] = Stability in plasma, SD rats; type: in vitro ADME; conditions: Sprague-Dawley (SD), rat, 37° C.
Procedure: as §7, §8, §9

CC[C@H](C)[C@@H]([C@@H](CC(=O)N1CCC[C@H]1[C@H](OC)[C@@H](C)C(=O)N[C@H](C)[C@@H](O)c1ccccc1)OC)N(C)C(=O)[C@@H](NC(=O)[C@H](C(C)C)N(C)C(=O)OCc1ccc(NC(=O)[C@H](CCCNC(N)=O)NC(=O)[C@@H](NC(=O)CCCC(=O)NCCC(=O)N(C)CC(=O)N(C)CC(=O)N(C)CC(=O)N(C)CC(=O)N(C)CC(=O)N(C)CC(=O)N(C)CC(=O)N(C)CC(=O)N(C)CC(=O)N(C)CC(=O)N[C@H]2CCCCNC(=O)C[C@@H](C(=O)N[C@H]3CSCCC(=O)N4CN5CN(C4)C(=O)CCSC(C)(C)[C@H](NC(=O)[C@@H](CC(=O)O)NC(=O)[C@H](Cc4cccc6ccccc46)NC(=O)[C@@H]4CCCN4C3=O)C(=O)N[C@@H](CCSC)C(=O)N[C@@H](CCCCNC(=N)N)C(=O)N[C@@H](CC(=O)O)C(=O)N[C@@H](Cc3c[nH]c4ccccc34)C(=O)N[C@@H](CO)C(=O)N[C@@H]([C@@H](C)O)C(=O)N3CCC[C@H]3C(=O)N3C[C@H](O)C[C@H]3C(=O)N[C@@H](Cc3c[nH]c4ccccc34)C(=O)N[C@H](C(N)=O)CSCCC5=O)NC(=O)CN(C)C2=O)C(C)C)cc1)C(C)C [Acetate salt of PDC_2] (I: [Sar][Sar][Sar][Sar][Sar][Sar][Sar][Sar][Sar][Sar]K[Sar]DCP[1Nal][dD][Pen]M[hArg]DWSTP[Hyp]WC-NH2 / II: V[Cit][PABC][NMeV]V[Dil][Dolaproine]-X1; lactam I:11-I:13; linker I:14-I:18-I:28 via TATA; linker I:N-II:N via X2)
half-life at 1 μM [1]: > 2.42 h
microsomal CLint at 1 μM [1]: < 9.6 µL/min/mg
AUC(0-t) [2]: 1 µM·h
C0 [2]: 3.1 µM
clearance [2]: 3.6 mL/min/kg
half-life [2]: 1.5 h
Vd ([2]; read-out: Vdss): 0.2 L/kg
half-life at 2 μM [3]: > 9.63 h
half-life at 1 μM [4]: > 2.42 h
microsomal CLint at 1 μM [4]: < 9.6 µL/min/mg
half-life at 1 μM [5]: > 3.61 h
CLint scaled at 1 μM ([5]; read-out: CLint (liver)): < 17.8 mL/min/kg
half-life at 2 μM [6]: > 9.63 h
